Measurements published in patent US20170342107A1 (REGENTS OF THE UNIVERSITY OF MINNESOTA, published 2017).
Square brackets hold non-standard residues; d marks the D form. Bip = N[C@@H](Cc1ccc(-c2ccccc2)cc1)C(=O)O; dPhe(4-I) = N[C@H](Cc1ccc(I)cc1)C(=O)O; 2Nal = N[C@@H](Cc1ccc2ccccc2c1)C(=O)O; d2Nal = N[C@H](Cc1ccc2ccccc2c1)C(=O)O; Bta = N[C@@H](Cc1csc2ccccc12)C(=O)O; Tic = O=C(O)[C@@H]1Cc2ccccc2CN1

Key:
Experiment in all cases: cell-based or functional assay
[1] = target: mouse melanocortin-3 receptor (mouse, UniProt P33033 1-323)
[2] = target: mouse melanocortin-5 receptor (mouse, UniProt P41149 1-325)
[3] = target: mouse melanocortin-4 receptor (mouse, UniProt P56450 1-332)
mouse melanocortin-4 receptor, sequence (P56450 whole entry): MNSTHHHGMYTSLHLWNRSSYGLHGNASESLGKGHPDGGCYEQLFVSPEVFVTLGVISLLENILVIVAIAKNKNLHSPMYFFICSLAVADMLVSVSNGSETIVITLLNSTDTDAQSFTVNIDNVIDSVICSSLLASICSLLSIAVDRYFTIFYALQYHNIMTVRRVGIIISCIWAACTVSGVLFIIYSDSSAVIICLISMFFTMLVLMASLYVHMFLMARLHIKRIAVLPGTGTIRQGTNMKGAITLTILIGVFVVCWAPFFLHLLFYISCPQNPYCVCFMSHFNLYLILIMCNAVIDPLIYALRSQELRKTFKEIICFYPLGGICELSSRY

mouse melanocortin-3 receptor, sequence (P33033 whole entry): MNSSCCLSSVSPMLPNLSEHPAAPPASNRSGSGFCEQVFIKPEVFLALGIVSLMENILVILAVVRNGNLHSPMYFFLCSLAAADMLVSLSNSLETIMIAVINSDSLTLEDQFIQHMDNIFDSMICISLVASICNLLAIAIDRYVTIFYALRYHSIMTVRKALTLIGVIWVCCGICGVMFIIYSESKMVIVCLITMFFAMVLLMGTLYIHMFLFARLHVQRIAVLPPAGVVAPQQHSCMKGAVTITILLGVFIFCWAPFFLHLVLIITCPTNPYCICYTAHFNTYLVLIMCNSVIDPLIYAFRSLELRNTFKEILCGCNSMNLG
mouse melanocortin-5 receptor, sequence (P41149 whole entry): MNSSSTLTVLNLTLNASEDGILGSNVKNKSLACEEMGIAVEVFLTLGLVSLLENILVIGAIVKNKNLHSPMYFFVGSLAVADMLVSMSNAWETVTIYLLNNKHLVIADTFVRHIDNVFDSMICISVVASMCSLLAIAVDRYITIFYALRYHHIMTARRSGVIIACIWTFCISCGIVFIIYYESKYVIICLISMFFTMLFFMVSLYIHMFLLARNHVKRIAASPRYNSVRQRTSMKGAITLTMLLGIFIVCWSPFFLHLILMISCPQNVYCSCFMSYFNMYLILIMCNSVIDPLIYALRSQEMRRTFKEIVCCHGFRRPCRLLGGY

Agonist, % of NDP-MSH maximal response [1] [% @ 100 µM] | Agonist, % of NDP-MSH maximal response [2] [% @ 100 µM] | Agonist, % of NDP-MSH maximal response [3] [% @ 100 µM] | Binder
32 | 55 | – | Ac-[Bip]R[dPhe(4-I)][d2Nal]-NH2 [SKY4-48-44, Ac-Bip-Arg-(pI)DPhe-DNal(2')-NH2]
57 | – | 35 | Ac-HR[dPhe(4-I)][2Nal]-NH2 [SKY4-48-35, Ac-His-Arg-(pI)DPhe-Nal(2')-NH2]
– | 50 | – | Ac-[Bta]R[dPhe(4-I)][2Nal]-NH2 [SKY4-48-37, Ac-3Bal-Arg-(pI)DPhe-Nal(2')-NH2]
– | – | 45 | Ac-[d2Nal]R[dPhe(4-I)][Bta]-NH2 [SKY4-48-17, Ac-DNal(2')-Arg-(pI)DPhe-3Bal-NH2]
37 | 35 | – | Ac-[Bta]R[dPhe(4-I)]F-NH2 (SMILES CC(=O)N[C@@H](Cc1csc2ccccc12)C(=O)N[C@@H](CCCNC(=N)N)C(=O)N[C@H](Cc1ccc(I)cc1)C(=O)N[C@@H](Cc1ccccc1)C(N)=O) [SKY5-146-4, Ac-3Bal-Arg-(pI)DPhe-Phe-NH2]
– | – | 33 | Ac-[2Nal]R[dPhe(4-I)][Tic]-NH2 [SKY4-48-24, Ac-Nal(2')-Arg-(pI)DPhe-Tic-NH2]
– | 21 | – | Ac-[Tic]R[dPhe(4-I)]F-NH2 (SMILES CC(=O)N1Cc2ccccc2C[C@H]1C(=O)N[C@@H](CCCNC(=N)N)C(=O)N[C@H](Cc1ccc(I)cc1)C(=O)N[C@@H](Cc1ccccc1)C(N)=O) [SKY4-48-30, Ac-Tic-Arg-(pI)DPhe-Phe-NH2]
42 | 49 | – | Ac-[2Nal]R[dPhe(4-I)]F-NH2 (SMILES CC(=O)N[C@@H](Cc1ccc2ccccc2c1)C(=O)N[C@@H](CCCNC(=N)N)C(=O)N[C@H](Cc1ccc(I)cc1)C(=O)N[C@@H](Cc1ccccc1)C(N)=O) [SKY4-48-32, Ac-Nal(2')-Arg-(pI)DPhe-Phe-NH2]

Continued, binder first:

Binder | Agonist, % of NDP-MSH maximal response [1] [% @ 100 µM] | Agonist, % of NDP-MSH maximal response [2] [% @ 100 µM] | Agonist, % of NDP-MSH maximal response [3] [% @ 100 µM]
Ac-FR[dPhe(4-I)]F-NH2 (SMILES CC(=O)N[C@@H](Cc1ccccc1)C(=O)N[C@@H](CCCNC(=N)N)C(=O)N[C@H](Cc1ccc(I)cc1)C(=O)N[C@@H](Cc1ccccc1)C(N)=O) [SKY4-48-31, Ac-Phe-Arg-(pI)DPhe-Phe-NH2] | 50 | 52 | –
Ac-FR[dPhe(4-I)][2Nal]-NH2 [SKY4-48-39, Ac-Phe-Arg-(pI)DPhe-Nal(2')-NH2] | 44 | 61 | –
Ac-[Bta]R[dPhe(4-I)][Tic]-NH2 [SKY4-48-21, Ac-3Bal-Arg-(pI)DPhe-Tic-NH2] | – | – | 37
Ac-[Bip]R[dPhe(4-I)][Bip]-NH2 [SKY4-48-4, Ac-Bip-Arg-(pI)DPhe-Bip-NH2] | – | – | 24
Ac-RR[dPhe(4-I)][2Nal]-NH2 [SKY4-48-34, Ac-Arg-Arg-(pI)DPhe-Nal(2')-NH2] | 51 | – | –
Ac-FR[dPhe(4-I)][d2Nal]-NH2 [SKY4-48-47, Ac-Phe-Arg-(pI)DPhe-DNal(2')-NH2] | 22 | 39 | –
Ac-[2Nal]R[dPhe(4-I)][2Nal]-NH2 [SKY4-48-40, Ac-Nal(2')-Arg-(pI)DPhe-Nal(2')-NH2] | 39 | 45 | –
Ac-[Tic]R[dPhe(4-I)][Tic]-NH2 [SKY6-24-1, Ac-Tic-Arg-(pI)DPhe-Tic-NH2] | – | – | 36
Ac-[Bip]R[dPhe(4-I)]F-NH2 (SMILES CC(=O)N[C@@H](Cc1ccc(-c2ccccc2)cc1)C(=O)N[C@@H](CCCNC(=N)N)C(=O)N[C@H](Cc1ccc(I)cc1)C(=O)N[C@@H](Cc1ccccc1)C(N)=O) [SKY4-48-28, Ac-Bip-Arg-(pI)DPhe-Phe-NH2] | 77 | 69 | –
